Patent US20150118700
Positions count from the first letter of the chain named. In names and notes the source's numbering stands.

T1: α-fructosyl hexapeptide (α-fructosyl-valyl-histidyl-leucyl-threonyl-propyl-glutamic acid)
T1 chain: VHLTPE

B1: CFP-T7-H2-62Q (protein)
chain: MTSNRADTRVIVVGGGGTIGSSTALHLVRSGYAPANITVLDTFEIPSAQSAGHDLNKIMGIQLRNKVDLQMSLEARQMWKEDELFQPFFHNTGRMDCEHTPEGIEDLKKLYQALHDAGAGLEKTHAWLDNEDEILSKMPLLQRDQIQGWKAIWSQDGGWLAAAKAINAIGQFLKERGVKFGFGGAGSFKQPLFDDEGTTCIGVETADGTKYYADKVVLAAGAWSPTLVDLEDQCCSKAWVYAHIQLTPEEAAEYKGVPVVYNGEFGFFFEPDEFGVIKVCDEFPGFSRFKEHQPYGAPSPKRISVPRSHAKHPTDTYPDASEVSIKKAIATFLPRFQDKELFNRALCWCTDTADAALLMCEHPKWKNFILATGDSGHSFKILPNVGKYVVELIEGRLPEEMAYQWRWRPGGDALKSRRAAPPKDLADMPGWKHDPKL
B2: CFP-T7-H7 (protein)
chain: B1 chain with Q62D, R64A
B3: CFP-T7-H12 (protein)
chain: B1 chain with Q62D, D106R
B4: CFP-T7-H2 (protein)
chain: B1 chain with Q62A
B5: CFP-T7-H24 (protein)
chain: B1 chain with Q62D, L63A, D106K, A113K
B6: CFP-T7-H10 (protein)
chain: B1 chain with Q62D, D106A
B7: CFP-T7-H28 (protein)
chain: B1 chain with Q62D, L63H, E102K, D106K, A113K
B8: CFP-T7-H29 (protein)
chain: B1 chain with Q62D, L63H, D106K, A113K, A419K
B9: CFP-T7-H6 (protein)
chain: B1 chain with Q62D
B10: CFP-T7-H25 (protein)
chain: B1 chain with Q62D, L63D, D106K, A113K
B11: CFP-T7-H14 (protein)
chain: B1 chain with Q62D, A113R
B12: CFP-T7-H2-62E (protein)
chain: B1 chain with Q62E
B13: CFP-T7-H13 (protein)
chain: B1 chain with Q62D, A113K
B14: CFP-T7-H9 (protein)
chain: B1 chain with Q62D, R64H
B15: CFP-T7-H1 (protein)
chain: B1 chain with Q62A, L110Q
B16: CFP-T7-H26 (protein)
chain: B1 chain with Q62D, L63H, D106K, A113K
B17: CFP-T7-H3 (protein)
chain: B1 chain with Q62A, L110F
B18: CFP-T7-H27 (protein)
chain: B1 chain with Q62D, L63K, D106K, A113K
B19: CFP-T7-H8 (protein)
chain: B1 chain with Q62D, R64E
B20: CFP-T7-H11 (protein)
chain: B1 chain with Q62D, D106K
B21: ketoamine oxidase derived from Neocosmospora vasinfecta (NvFX) (protein)
chain: MTTPRKETTVLIIGGGGTIGSSTALHLLRAGYTPSNITVLDTYPIPSAQSAGNDLNKIMGIRLRNKVDLQLSLEARDMWRNDALFRPFFHNTGRLDCESSAEGVEGLRREYQKLVEAGVGLEETHEWLDSEEAILEKAPLLQREEIEGWKAIWSEEGGWLAAAKAINAIGEELQRQGVRFGFGGAGSFKRPLFADDGTTCIGVETVDGTQYHADKVVLAAGAWSPALVDLEEQCCSKAWVYAHMQLTPEEAAVYKGCPVVYHGDVGFFFEPNENGVIKVCDEFPGFTRFKQHQPYGAPAPKPVSVPRSHAKHPTDTYPDASEESIKRAVSTFLPRFKDKPLFNRALCWCTDTADSALLICEHPRWKNFILATGDSGHSFKLLPIIGKHVVELVEGRLADDLAEAWRWRPGQGDARKSIRAAPAKDLADMPGWKHDQDSESR
B22: fructosyl peptide oxidase derived from Eupenicillium terrenum (EFP-T5) (protein)
chain: MAHSRASTKVVVVGGGGTIGSSTALHLIRSGYTPSNITVLDVYKTPSLQSAGHDLNKIMGIRLRNGPDLQLSLESLDMWQNDELFKPFFHQVGMIDCSSSKEGIENLRRKYQTLLDAGIGLEKTNVWLESEDEILAKAPNFTREQVKGWKGLFCTDGGWLAAAKAINAIGIFLQDKGVKFGFGDAGTFQQPLFAADGKTCIGLETTDGTKYFADKVVLAAGAWSPTLVDLEDQCVSKAWVFAHIQLTPKEADAYKNVPVVYDGEYGFFFEPDEYGVIKVCDEFPGFSRFKLHQPYGAASPKMISVPRSHAKHPTDTYPDASEVTIRKAIARFLPEFKDKELFNRTMCWCTDTADANLLICEHPKWKNFILATGDSGHSFKLLPNIGKYVVELLEGSLSQEMAGAWRWRPGGDALRSRRGAPAKDLAEMPGWKHDAHL
B23: EFP-T5-R62D (protein)
chain: B22 chain with R62D
B24: EFP-T5-62D/63H/106K/110L/113K/355S (protein)
chain: B22 chain with R62D, L63H, N106K, K110L, T113K, A355S

Target: T1, α-fructosyl hexapeptide …

Protein	αF6P oxidation activity ratio, relative to CFP-T7-H6 designated to be 100 (relative (CFP-T7-H6 = 100))	αF6P oxidation activity, relative to αFVH oxidation activity designated to be 100 (relative (αFVH = 100))	other results
B1	–	–	αF6P oxidation activity ratio, relative to CFP-T7-H2 designated to be 100 (relative (CFP-T7-H2 = 100)): 11
B2	17	–	–
B3	636	11.6	–
B4	–	0.0735	αF6P oxidation activity ratio (reference, designated to be 100) (relative (CFP-T7-H2 = 100)): 100
B5	–	86.7	αF6P oxidation activity ratio, relative to CFP-T7-H20 designated to be 100 (relative (CFP-T7-H20 = 100)): 123
B6	301	–	–
B7	–	134	αF6P oxidation activity ratio (reference row of the table, 100) (relative (CFP-T7-H28 = 100)): 100; αF6P oxidation activity ratio, relative to CFP-T7-H26 designated to be 100 (relative (CFP-T7-H26 = 100)): 117
B8	–	111	αF6P oxidation activity ratio, relative to CFP-T7-H26 designated to be 100 (relative (CFP-T7-H26 = 100)): 102
B9	–	3	αF6P oxidation activity ratio (reference, designated to be 100) (relative (CFP-T7-H6 = 100)): 100; αF6P oxidation activity ratio, relative to CFP-T7-H2 designated to be 100 (relative (CFP-T7-H2 = 100)): 513
B10	–	–	αF6P oxidation activity ratio, relative to CFP-T7-H20 designated to be 100 (relative (CFP-T7-H20 = 100)): 24
B11	183	4.22	–
B12	–	–	αF6P oxidation activity ratio, relative to CFP-T7-H2 designated to be 100 (relative (CFP-T7-H2 = 100)): 21
B13	207	4.33	–
B14	44	–	–
B15	–	0.0316	–
B16	–	84.3	αF6P oxidation activity ratio (reference, designated to be 100) (relative (CFP-T7-H26 = 100)): 100; αF6P oxidation activity ratio, relative to CFP-T7-H20 designated to be 100 (relative (CFP-T7-H20 = 100)): 142
B17	–	0.0298	–
B18	–	–	αF6P oxidation activity ratio, relative to CFP-T7-H20 designated to be 100 (relative (CFP-T7-H20 = 100)): 7
B19	2	–	–
B20	951	12.5	–
B21	–	–	Specific activity (U/mg), 1 mM αF6P: 0 U/mg
B22	–	–	Specific activity (U/mg), 1 mM αF6P: 0 U/mg
B23	–	–	Specific activity (U/mg), 1 mM αF6P: 0.0043 U/mg
B24	–	–	Specific activity (U/mg), 1 mM αF6P: 1.12 U/mg
